Patent KR20130126534A

Target: TNF-α
Assay: ELISA, TNF-α coated 100 ng/well, protein titrated from 100 nM, anti-Human Fc-HRP

Kd: 0.068 nM
Substance: TNFR2 (단독) (from UniProt P20333 23-252) (Fc fusion)
